This note sets out measurements from patent publication US20220306739A1 (Janssen / Centocor, published 2022).

As a reminder, the EC50 is the concentration needed to bring the measured effect to its halfway point.

For test [1], the target named is T1, TCR with TRBC1 on Jurkat cells (human, UniProt P01850 1-176).
T1 construct: whole, on cells; Only the constant domain is named; also called TRBC1 expressing Jurkat cell lines; transfected Jurkat cells
T1 TCR beta (looked up): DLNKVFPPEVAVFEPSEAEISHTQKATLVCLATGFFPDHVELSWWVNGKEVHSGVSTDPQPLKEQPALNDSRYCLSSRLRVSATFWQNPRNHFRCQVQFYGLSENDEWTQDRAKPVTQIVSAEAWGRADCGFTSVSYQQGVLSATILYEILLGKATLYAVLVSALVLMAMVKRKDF
Description: flow cytometry on TRBC1 expressing Jurkat cells. How it is done: Cells were washed with wash buffer (PBS+2% FBS) and the fluorescence of stained cells was measured on Novocyte flow cytometer. Cells were visualized on forward and sideward scatter and doublets were excluded. No secondary antibody control was used to establish background fluorescence and to gate on specific population. Background value was subtracted from main samples to get specific binding value.
In general terms: Flow cytometry measures light scatter and fluorescence of single cells or particles in a stream.

Test [2] has as its target T2, TRBC2 TCR on HPB-ALL cells (human, UniProt A0A5B9 1-178).
T2 construct: whole, on cells; Only the constant domain is named; also called HPB-ALL cell line that endogenously expresses TRBC2 TCR
T2 TCR beta (looked up): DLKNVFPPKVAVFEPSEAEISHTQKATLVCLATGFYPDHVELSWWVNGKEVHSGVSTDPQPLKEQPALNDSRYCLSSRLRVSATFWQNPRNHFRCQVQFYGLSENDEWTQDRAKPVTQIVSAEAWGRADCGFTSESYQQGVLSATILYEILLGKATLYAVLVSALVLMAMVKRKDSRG
Description: flow cytometry cell binding to HPB-ALL cells (TRBC2), signal:background ratio.

B1: anti-TRBC1 antibody JOVI-1 mIgG2a (TRB1B1) (antibody, V domains shown)
VH: EVRLQQSGPDLIKPGASVKMSCKASGYTFTGYVMHWVKQRPGQGLEWIGFINPYNDDIQSNERFRGKATLTSDKSSTTAYMELSSLTSEDSAVYYCARGAGYNFDGAYRFFDFWGQGTTLTVSS
VL: DVVMTQSPLSLPVSLGDQASISCRSSQRLVHSNGNTYLHWYLQKPGQSPKLLIYRVSNRFPGVPDRFSGSGSGTDFTLKISRVEAEDLGIYFCSQSTHVPYTFGGGTKLEIK
notes: Mouse IgG2a monoclonal, commercially sourced; also called mJOVI-1; mouse anti-human TRBC1 clone JOVI-1 mAb
In turn, B1 registered an EC50 in test [1] of 1 to 2 nM. The binding result in test [2] was “no binding”.
